Experimental findings from paper PMC5177531 are described below.

Test [1] concerns the target T1, 6TM/E11 mu opioid receptor site 6TM variant (Mus musculus), P42866.
T1 chain: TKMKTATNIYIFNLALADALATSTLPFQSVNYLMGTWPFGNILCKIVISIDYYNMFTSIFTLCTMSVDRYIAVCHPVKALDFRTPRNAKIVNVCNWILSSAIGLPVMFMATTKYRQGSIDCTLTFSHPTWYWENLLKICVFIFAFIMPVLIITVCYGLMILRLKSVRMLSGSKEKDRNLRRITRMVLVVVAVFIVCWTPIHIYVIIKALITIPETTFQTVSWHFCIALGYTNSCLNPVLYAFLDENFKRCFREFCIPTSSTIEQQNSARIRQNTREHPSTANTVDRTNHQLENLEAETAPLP
In words: competition. As to conditions: modification not given.

Test [2] deals with mMOR-1 (Mus musculus), P42866. In words: competition. As to conditions: modification not given.
Sequence of mMOR-1 (Mus musculus), P42866 (P42866 whole entry): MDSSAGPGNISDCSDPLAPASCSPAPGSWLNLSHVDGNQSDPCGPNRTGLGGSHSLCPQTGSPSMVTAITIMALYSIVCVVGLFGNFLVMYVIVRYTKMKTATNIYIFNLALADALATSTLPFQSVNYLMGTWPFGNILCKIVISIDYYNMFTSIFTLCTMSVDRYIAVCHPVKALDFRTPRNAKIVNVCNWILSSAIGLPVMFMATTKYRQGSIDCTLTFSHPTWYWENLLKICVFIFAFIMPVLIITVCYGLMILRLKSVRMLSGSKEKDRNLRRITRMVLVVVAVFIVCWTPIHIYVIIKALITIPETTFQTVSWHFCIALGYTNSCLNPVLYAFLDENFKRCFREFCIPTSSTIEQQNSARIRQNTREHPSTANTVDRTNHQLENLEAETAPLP

For YAFGYPS [Dermorphin], the Ki in test [1] was > 500 nM; in test [2] it was 4 nM.

The term Ki denotes the dissociation constant of the complex between target and ligand, obtained from inhibition or displacement. A higher Ki goes with lower affinity.
